Test results from publication PMC7610802 (The Journal of allergy and clinical immunology, 2019).

Target: T1, mouse soluble ST2 (sST2) (mouse, UniProt P14719-2 27-337, N-linked glycans (shown by PNGase F))
T1 sequence: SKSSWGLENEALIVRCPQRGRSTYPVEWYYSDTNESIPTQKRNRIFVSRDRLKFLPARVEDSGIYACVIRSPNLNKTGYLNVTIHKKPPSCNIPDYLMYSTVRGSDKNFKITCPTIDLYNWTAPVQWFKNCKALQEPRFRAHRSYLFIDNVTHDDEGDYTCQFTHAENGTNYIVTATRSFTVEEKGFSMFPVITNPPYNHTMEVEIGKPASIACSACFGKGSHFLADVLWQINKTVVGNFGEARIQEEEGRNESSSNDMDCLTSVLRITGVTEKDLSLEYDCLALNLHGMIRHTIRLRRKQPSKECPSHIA
Assay: ITC

B1: mouse IL-33 (residues 109-266) (ligand)
chain: SIQGTSLLTQSPASLSTYNDQSVSFVLENGCYVINVDDSGKDQEQDQVLLRYYESPCPASQSGDGVDGKKLMVNMSPIKDTDIWLHANDKDYSVELQRGDVSPPEQAFFVLHKKSSDFVSFECKNLPGTYIGVKDNQLALVEEKDESCNNIMFKLSKI
  Kd: 4.59 nM
